{"source": "patent US20250121104A1", "about": "(FUSION PHARMACEUTICALS, published 2025)", "binders": {"B1": {"name": "RAA22/B09-57 DuetMab (bispecific antibody, V domains shown)", "VH 1": "QVQLVQSGAEVKKPGSSVKVSCKASGGTFSDNDFSWVRQAPGQGLEWMGAIVAVFRTETYAQKFQDRVKITADISTRTTYMELSSLRSEDTAVYYCARRLMSAISGPGAPLLMWGQGTLVTVSS", "VL 1": "QSALTQPRSVSGSPGQSVTISCTGTSSDVGGYNYVSWYQQHPGKAPKLMIYDVSKRPSGVPDRFSGSKSGNTASLTISGLQAEDEADYYCSSYTSSDTLEIFGGGTKLTVL", "VH 2": "QVQLVQSGAEVKKPGASVKVSCKASGYTFTDYYIHWVRQATGQGLEWMGWMNPNSGNTGYAQKFQGRVTMTRDTSISTAYMELSSLRSEDTAVYYCARGQGYTHSWGQGTMVTVSS", "VL 2": "DIQMTQSPSTLSASVGDRVTITCRASEGIYHWLAWYQQKPGKAPKLLIYKASSLASGVPSRFSGSGSGTEFTLTISSLQPDDFATYYCQQYSNYPPTFGGGTKLEIK", "notes": "RAA22 VH on Hole heavy chain (T366S, L368A, Y407V, Y349C) with lambda CL; cysteine insertion after S239; also called RAA22/B09 DuetMab; RAA22/B09 bispecific mAb"}}, "test_in_all_cases": "SPR (BIAcore T200), antibody captured on anti-human IgG, soluble monomeric antigen as analyte, 25 C, 1:1 fit", "key": {"[1]": {"target": "T1, cynomolgus monkey cMET (recombinant, soluble monomeric) (cynomolgus monkey, UniProt A0M8R7 25-932 (Papio anubis entry))", "T1 construct": "also called cyno cMET", "T1 sequence (A0M8R7 25-932 S170N/I621T)": "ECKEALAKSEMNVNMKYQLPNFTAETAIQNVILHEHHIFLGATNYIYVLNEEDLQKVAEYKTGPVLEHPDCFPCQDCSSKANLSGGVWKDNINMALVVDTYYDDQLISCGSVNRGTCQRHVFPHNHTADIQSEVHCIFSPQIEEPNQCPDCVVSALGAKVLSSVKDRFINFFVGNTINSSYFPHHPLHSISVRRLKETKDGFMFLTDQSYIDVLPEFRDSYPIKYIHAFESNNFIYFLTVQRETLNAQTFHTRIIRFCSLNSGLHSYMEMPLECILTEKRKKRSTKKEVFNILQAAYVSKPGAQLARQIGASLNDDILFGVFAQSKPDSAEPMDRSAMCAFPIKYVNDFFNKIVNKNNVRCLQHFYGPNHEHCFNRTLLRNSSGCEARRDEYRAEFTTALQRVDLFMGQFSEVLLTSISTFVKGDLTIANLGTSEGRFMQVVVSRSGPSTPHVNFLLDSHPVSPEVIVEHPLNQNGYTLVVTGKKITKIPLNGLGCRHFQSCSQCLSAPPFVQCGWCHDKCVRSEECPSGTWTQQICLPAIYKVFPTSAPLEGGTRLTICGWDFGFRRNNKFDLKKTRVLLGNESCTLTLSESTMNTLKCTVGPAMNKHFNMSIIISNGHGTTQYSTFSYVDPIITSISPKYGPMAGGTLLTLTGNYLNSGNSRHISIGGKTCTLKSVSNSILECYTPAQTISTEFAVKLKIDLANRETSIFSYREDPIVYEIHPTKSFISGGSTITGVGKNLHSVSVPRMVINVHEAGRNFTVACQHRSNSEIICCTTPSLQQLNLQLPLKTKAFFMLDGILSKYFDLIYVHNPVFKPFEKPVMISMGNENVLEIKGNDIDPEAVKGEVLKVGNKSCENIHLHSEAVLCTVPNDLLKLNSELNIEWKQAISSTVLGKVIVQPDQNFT", "experimental": "(§1) Mouse anti-human IgG was immobilized on a CM4 sensor chip with a final surface density of ˜2000 resonance units (RUs). A reference flow cell surface was also prepared on this sensor chip using identical immobilization protocol. Test and control article antibodies were prepared at 5-20 nM in instrument buffer (HBS-EP buffer; 0.01M HEPES, pH 7.4, 0.15M NaCl, 3 mM EDTA, and 0.005% P-20), along with 3-fold serial dilutions of purified EGFR (0.27-200 nM human, 0.4-900 nM cyno, and 4-1000 nM murine) or cMET proteins (0.27-66 nM human and 0.27-22 nM cyno) in instrument buffer. A sequential approach was utilized for kinetic measurements. Antibodies were first injected over the capture surface, at a flow rate of 10 μL/minute. Once the binding of the captured antibody stabilized, a single concentration of the analyte was injected over both capture and reference surfaces, at a flow rate of 75 μL/minute. The resulting binding response curves yielded the association phase data. Following the injection of analyte, the flow was then switched back to instrument buffer for 15 minutes to permit the collection of dissociation phase data, followed by a 1-minute pulse of 10 mM glycine, pH 1.5, to regenerate the antibody-captured surface on the chip. Binding responses against test and control article antibodies were recorded from duplicate injections of each concentration of analyte. In addition, several buffer injections were interspersed throughout the injection series. Select buffer injections were used along with the reference cell responses to correct the raw data sets for injection artifacts and/or nonspecific binding interactions, commonly referred to as “double referencing”. Corrected binding data were globally fit to a 1:1 binding model (Biacore T200 Evaluation software 2.0, GE Healthcare, Pittsburgh, PA).\n(§2) Kinetic measurements to soluble monomeric forms of EGFR and cMET were performed using a BIACore instrument."}, "[2]": {"target": "T2, human cMET (recombinant, soluble monomeric) (human, UniProt P08581 25-932)", "T2 construct": "also called cMET antigen; His-tagged cMET antigen", "T2 sequence (P08581 25-932)": "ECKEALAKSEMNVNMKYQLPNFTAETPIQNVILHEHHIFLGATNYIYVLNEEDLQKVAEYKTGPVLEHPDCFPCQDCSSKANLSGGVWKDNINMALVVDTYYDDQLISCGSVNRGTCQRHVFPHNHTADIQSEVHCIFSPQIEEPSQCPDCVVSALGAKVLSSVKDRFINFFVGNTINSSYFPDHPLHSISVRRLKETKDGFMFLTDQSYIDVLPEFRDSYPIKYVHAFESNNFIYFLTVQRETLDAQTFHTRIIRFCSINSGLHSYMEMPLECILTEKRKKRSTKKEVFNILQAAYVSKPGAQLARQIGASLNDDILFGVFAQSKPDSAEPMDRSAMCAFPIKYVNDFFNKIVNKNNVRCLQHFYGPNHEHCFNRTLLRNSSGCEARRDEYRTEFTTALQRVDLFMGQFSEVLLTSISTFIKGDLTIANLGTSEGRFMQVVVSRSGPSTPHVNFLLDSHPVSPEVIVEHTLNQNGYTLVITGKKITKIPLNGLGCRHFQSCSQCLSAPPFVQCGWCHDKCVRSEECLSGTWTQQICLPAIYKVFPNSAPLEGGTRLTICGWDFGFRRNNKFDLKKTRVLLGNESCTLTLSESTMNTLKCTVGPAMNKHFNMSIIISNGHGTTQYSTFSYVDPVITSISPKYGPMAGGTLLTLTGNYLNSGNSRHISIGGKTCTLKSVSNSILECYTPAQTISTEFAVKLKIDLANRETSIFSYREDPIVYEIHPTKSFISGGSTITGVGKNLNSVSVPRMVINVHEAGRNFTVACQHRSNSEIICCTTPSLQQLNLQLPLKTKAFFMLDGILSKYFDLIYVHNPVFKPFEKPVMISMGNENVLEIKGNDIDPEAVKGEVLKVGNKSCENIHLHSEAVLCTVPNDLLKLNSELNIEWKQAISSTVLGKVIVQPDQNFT", "experimental": "as §1, §2"}, "[3]": {"target": "T3, cynomolgus monkey EGFR (recombinant, soluble monomeric) (cynomolgus monkey, UniProt P55245 25-645 (rhesus entry))", "T3 construct": "also called cyno EGFR", "experimental": "as §1, §2"}, "mouse EGFR (recombinant)": {"target": "T4, mouse EGFR (recombinant) (mouse, UniProt Q01279 25-647)", "T4 construct": "also called murine EGFR", "experimental": "as §1, §2"}, "[4]": {"target": "T5, human EGFR (recombinant, soluble monomeric) (human, UniProt P00533 25-645)", "T5 construct": "also called EGFR antigen", "experimental": "as §1, §2"}}}
{"binder": "B1", "values": [{"measurement": "Kd", "setting": "[1]", "result": 2.2, "unit": "nM"}, {"measurement": "koff", "setting": "[1]", "result": 0.00212, "unit": "s⁻¹"}, {"measurement": "kon", "setting": "[1]", "result": 974000, "unit": "M⁻¹ s⁻¹"}, {"measurement": "Kd", "setting": "[2]", "result": 2.2, "unit": "nM"}, {"measurement": "koff", "setting": "[2]", "result": 0.000986, "unit": "s⁻¹"}, {"measurement": "kon", "setting": "[2]", "result": 443000, "unit": "M⁻¹ s⁻¹"}, {"measurement": "Kd", "setting": "[3]", "result": 197, "unit": "nM"}, {"measurement": "koff", "setting": "[3]", "result": 0.00548, "unit": "s⁻¹"}, {"measurement": "kon", "setting": "[3]", "result": 27800, "unit": "M⁻¹ s⁻¹"}, {"measurement": "Kd", "setting": "mouse EGFR (recombinant)", "result": 575, "unit": "nM"}, {"measurement": "koff", "setting": "mouse EGFR (recombinant)", "result": 0.0206, "unit": "s⁻¹"}, {"measurement": "kon", "setting": "mouse EGFR (recombinant)", "result": 35400, "unit": "M⁻¹ s⁻¹"}, {"measurement": "Kd", "setting": "[4]", "result": 45, "unit": "nM"}, {"measurement": "koff", "setting": "[4]", "result": 0.00201, "unit": "s⁻¹"}, {"measurement": "kon", "setting": "[4]", "result": 44700, "unit": "M⁻¹ s⁻¹"}]}
